Positions count from the first letter of the chain named.
T1: Qβ (RNA bacteriophage Qbeta, UniProt P03615 2-133)
T1 construct: The description says it is a VLP of RNA bacteriophage Qbeta; also called Qbeta; VLP of RNA bacteriophage Qbeta
T1 sequence: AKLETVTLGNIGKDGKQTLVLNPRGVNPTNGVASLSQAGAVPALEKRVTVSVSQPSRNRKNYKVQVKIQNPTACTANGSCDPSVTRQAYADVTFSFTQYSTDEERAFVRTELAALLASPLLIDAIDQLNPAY

B1: scFv-Qb#8-Fc (Fc fusion)
scFv: DADPAQAAELVVTQEPSVSGAPGQSVTISCTGGSSNIGASYDVHWYKQLPGAAPILLIYANYIRPSGVPDRFSASKSGTSASLAITGLQAEDEADYYCQSYDSSLSGVVFGGGTKLTVLGGGSSRSSSSGGGGSGGGGQVQLQESGGGWVQSGGSLRLSCAASGFSFSSYAMSWVRQAPGKGLEWVSAMSPIGGSTFYADSVKGRFTISRDNSKNTLFLQMNSLRAEDTAVYYCAKDAVVTAVGLGRYFDLWGRGTLVSVSSASTKGPSVTSGQAGRKLTHTCPPCPAPEAEGAPSVFLFPPKPKDTLMISRTPEVTCVVVDVSHEDPEVKFNWYVDGVEVHNAKTKPREEQYNSTYRVVSVLTVLHQDWLNGKEYKCKVSNKALPASIEKTISKAKGQPREPQVYTLPPSRDELTKNQVSLTCLVKGFYPSDIAVEWESNGQPENNYKTTPPVLDSDGSFFLYSKLTVDKSRWQQGNVFSCSVMHEALHNHYTQKSLSLSPGK
notes: The entry may contain the signal peptide; also called pCEP/scFvQb#8-Fc product
B2: scFv-Qb#5-Fc (Fc fusion)
scFv: DADPAQAAELVLTQPPSVSGAPGQRVSISCTGSSSNIGARYDVHWYQQLPGTAPKLLIYGNTNRPSGVPDRFSGSKSGSSASLAITGLQAEDEADYYCQSYDRSLSGVVFGGGTKLTVLGGGSSRSSSSGGGGSGGGGEVQLVQSGPGLVKPSETLSLTCTVSGGSISSTSYSWGWIRQPPGKGLEWIATVSYSGRSYSNPSLKSRVTTSVDTSKNQFSLRLGSVTAADTAVYYCARLYYIWRSYHSGRFDYWGQGTLVPVSSASTKGPSVTSGQAGRKLTHTCPPCPAPEAEGAPSVFLFPPKPKDTLMISRTPEVTCVVVDVSHEDPEVKFNWYVDGVEVHNAKTKPREEQYNSTYRVVSVLTVLHQDWLNGKEYKCKVSNKALPASIEKTISKAKGQPREPQVYTLPPSRDELTKNQVSLTCLVKGFYPSDIAVEWESNGQPENNYKTTPPVLDSDGSFFLYSKLTVDKSRWQQGNVFSCSVMHEALHNHYTQKSLSLSPGK
notes: The entry may contain the signal peptide; also called pCEP/scFvQb#5-Fc product
B3: scFv-Qb#2-Fc (Fc fusion)
scFv: DADPAQAAELGLTQPPSVSGAPGQRVTISCTGSSSNIGRFDVHWYQQLPGTAPKLLIYGNTNRPSGVPDRFSGSKSGSSASLAITGLQAEDEADYYCQSYDRSLSGVVFGGGTQLTVLGGGSSRSSSSGGGGSGGGGEVQLLESGPGLVKPSETLSLTCTVSGGSISSGNYYWSWIRQTPEKGLEWLGYVHYTGSSKLNPSLKSRVTISVDTYTNQFSLSLSSMTAADTAVYYCARGKNCANDICYIGSWFDPWGQGTLVTVSSASTKGPSVTSGQAGRKLTHTCPPCPAPEAEGAPSVFLFPPKPKDTLMISRTPEVTCVVVDVSHEDPEVKFNWYVDGVEVHNAKTKPREEQYNSTYRVVSVLTVLHQDWLNGKEYKCKVSNKALPASIEKTISKAKGQPREPQVYTLPPSRDELTKNQVSLTCLVKGFYPSDIAVEWESNGQPENNYKTTPPVLDSDGSFFLYSKLTVDKSRWQQGNVFSCSVMHEALHNHYTQKSLSLSPGK
notes: also called pCEP/scFvQb#2-Fc product
B4: scFv-Qb#3-Fc (Fc fusion)
scFv: DADPAQAAELVMTQSPSSLSASVGDRVTITCRASQGVSRALAWYQQKPGNPPKLLIYDASNLQSGVPSRFSGGGSGTEFILTISSLQPEDFATYYCQQYNAYPWTFGQGTKLEIKGGSSRSSSSGGGGSGGGGQVQLQESGPGLVKPSETLSLTCTVSGGSISSGNYYWSWIRQTPEKGLEWLGYVHYTGSSKLNPSLKSRVTISVDTYTNQFSLSLSSMTAADTAVYYCARGKNCANDICYIGSWFDPWGQGTLVTVSSASTKGPSVTSGQAGRKLTHTCPPCPAPEAEGAPSVFLFPPKPKDTLMISRTPEVTCVVVDVSHEDPEVKFNWYVDGVEVHNAKTKPREEQYNSTYRVVSVLTVLHQDWLNGKEYKCKVSNKALPASIEKTISKAKGQPREPQVYTLPPSRDELTKNQVSLTCLVKGFYPSDIAVEWESNGQPENNYKTTPPVLDSDGSFFLYSKLTVDKSRWQQGNVFSCSVMHEALHNHYTQKSLSLSPGK
notes: The entry may contain the signal peptide; also called pCEP/scFvQb#3-Fc product
B5: Qb#3 Fab fragment (Fab, V domains shown)
VH: QVQLQESGPGLVKPSETLSLTCTVSGGSISSGNYYWSWIRQTPEKGLEWLGYVHYTGSSKLNPSLKSRVTISVDTYTNQFSLSLSSMTAADTAVYYCARGKNCANDICYIGSWFDPWGQGTLVTVSS
VL: ELVMTQSPSSLSASVGDRVTITCRASQGVSRALAWYQQKPGNPPKLLIYDASNLQSGVPSRFSGGGSGTEFILTISSLQPEDFATYYCQQYNAYPWTFGQGTKLEIK
notes: domain: γ2 heavy chain Fd region; The Fd part is from human γ2; also called Qβ#3 Fab; pCB15-Qb#3-Fab product; not shown: human κ light chain constant region (vector pCMV-LC)
B6: Qb#2 Fab fragment (Fab, V domains shown)
VH: B5 VH with Q1E, Q5L
VL: ELGLTQPPSVSGAPGQRVTISCTGSSSNIGRFDVHWYQQLPGTAPKLLIYGNTNRPSGVPDRFSGSKSGSSASLAITGLQAEDEADYYCQSYDRSLSGVVFGGGTQLTVLG
notes: domain: γ2 heavy chain Fd region; The Fd part is from human γ2; also called Qβ#2 Fab; pCB15-Qb#2-Fab product; not shown: human κ light chain constant region (vector pCMV-LC)
B7: Qb#5 Fab fragment (Fab, V domains shown)
VH: EVQLVQSGPGLVKPSETLSLTCTVSGGSISSTSYSWGWIRQPPGKGLEWIATVSYSGRSYSNPSLKSRVTTSVDTSKNQFSLRLGSVTAADTAVYYCARLYYIWRSYHSGRFDYWGQGTLVPVSS
VL: ELVLTQPPSVSGAPGQRVSISCTGSSSNIGARYDVHWYQQLPGTAPKLLIYGNTNRPSGVPDRFSGSKSGSSASLAITGLQAEDEADYYCQSYDRSLSGVVFGGGTKLTVLG
notes: domain: γ2 heavy chain Fd region; The Fd part is from human γ2; also called Qβ#5 Fab; pCB15-Qb#5-Fab product; not shown: human κ light chain constant region (vector pCMV-LC)
B8: Qb#3 whole IgG2 (antibody, V domains shown)
VH: B5 VH
VL: B5 VL
notes: domain: γ2 heavy chain constant region; also called Qβ#3 IgG2; pCB15-Qb#3-IgG2 product; not shown: human κ light chain constant region (vector pCMV-LC)
B9: Qb#2 whole IgG2 (antibody, V domains shown)
VH: B5 VH with Q1E, Q5L
VL: B6 VL
notes: domain: γ2 heavy chain constant region; also called Qβ#2 IgG2; pCB15-Qb#2-IgG2 product
B10: Qb#8 whole IgG2 (antibody, V domains shown)
VH: QVQLQESGGGWVQSGGSLRLSCAASGFSFSSYAMSWVRQAPGKGLEWVSAMSPIGGSTFYADSVKGRFTISRDNSKNTLFLQMNSLRAEDTAVYYCAKDAVVTAVGLGRYFDLWGRGTLVSVSS
VL: ELVVTQEPSVSGAPGQSVTISCTGGSSNIGASYDVHWYKQLPGAAPILLIYANYIRPSGVPDRFSASKSGTSASLAITGLQAEDEADYYCQSYDSSLSGVVFGGGTKLTVLG
notes: domain: γ2 heavy chain constant region; also called Qβ#8 IgG2; pCB15-Qb#8-IgG2 product; not shown: human κ light chain constant region (vector pCMV-LC)
B11: Qb#5 whole IgG2 (antibody, V domains shown)
VH: B7 VH
VL: B7 VL
notes: domain: γ2 heavy chain constant region; also called Qβ#5 IgG2; pCB15-Qb#5-IgG2 product; not shown: human κ light chain constant region (vector pCMV-LC)

target: T1, Qβ; assay: ELISA, Qβ coated, purified scFv-Fc titrated; concentration of half-maximal binding

Binder	EC50 [nM]
B1	0.163
B2	0.052
B3	0.051
B4	0.035

target: T1, Qβ; assay: ELISA, Qβ coated, purified Fab; range of concentrations of half-maximal binding

Binder	EC50 [nM]
B5	0.077 to 0.239
B6	0.261 to 0.454
B7	0.082 to 0.236

target: T1, Qβ; assay: ELISA, Qβ coated, purified IgG2; range of concentrations of half-maximal binding

Binder	EC50 [nM]
B8	0.015 to 0.037
B9	0.025 to 0.056
B10	0.456 to 1.1
B11	0.021 to 0.054

Source: US20100292089A1 (CYTOS BIOTECHNOLOGY, published 2010)
